{"source": "patent US20220098306A1", "about": "(Xencor, published 2022)", "binders": {"B1": {"name": "XENP34389 (bispecific antibody)", "heavy 1": "EVQLLESGGGLVQPGGSLRLSCAASGFTFSNYYMAWVRQAPGKGLEWVSSISTGGGSTYYRDSVKGRFTISRDNSKSTLYLQMNSLRAEDTAVYYCTTDLSAIAATPFAYWGQGTLVTVSSASTKGPSVFPLAPSSKSTSGGTAALGCLVKDYFPEPVTVSWNSGALTSGVHTFPAVLQSSGLYSLSSVVTVPSSSLGTQTYICNVNHKPSDTKVDKKVEPKSCDKTHTCPPCPAPPVAGPSVFLFPPKPKDTLMISRTPEVTCVVVDVKHEDPEVKFNWYVDGVEVHNAKTKPREEEYNSTYRVVSVLTVLHQDWLNGKEYKCKVSNKALPAPIEKTISKAKGQPREPQVYTLPPSREEMTKNQVSLTCDVSGFYPSDIAVEWESDGQPENNYKTTPPVLDSDGSFFLYSKLTVDKSRWEQGDVFSCSVMHEALHNHYTQKSLSLSPGK", "heavy 2": "not shown", "light": "DIQMTQSPSSLSASVGDRVTITCRASQNIYTSLAWYQQKPGKAPKLLIYNAHSLQTGIPSRFSGSGSGADFTLTISSLQPEDFATYFCQQYYSGLTFGSGTKLEIKRTVAAPSVFIFPPSDEQLKSGTASVVCLLNNFYPREAKVQWKVDNALQSGNSQESVTEQDSKDSTYSLSSTLTLSKADYEKHKVYACEVTHQGLSSPVTKSFNRGEC", "notes": "2+1 Fab2-scFv-Fc; also called B7H3 x CD28 in 2+1 Fab2-scFv-Fc format; copies: 1 + 1 + 2"}}, "target": "T1, CD28-Fc-His protein (human, UniProt P10747 19-152)", "T1 construct": "Captured on anti-HIS (HIS1K) biosensors; also called CD28 antigen; not shown: Fc; His tag", "assay": "Octet (BLI), CD28-Fc-His on HIS1K biosensors, 1:1 Langmuir and steady state fits", "text": "To investigate whether the difference observed for XENP34339 resulted from the difference in B7H3 binding domain or the difference in bispecific antibody format, the component binding domains of XENP34339 and XENP34389 were biophysically characterized using Octet. […] Anti-mouse Fc biosensors were used to capture mouse Fc fusions of B7H3, either the full extracellular V1C1-[…] domain or the individual V1C1 or V2C2 domains, and dipped into multiple concentrations of XENP34717 or XENP34728. Kinetic analyses were performed by global fitting of binding data with a 1:1 Langmuir binding model. […] Next, the binding affinities of the CD28 binding domains for CD28 antigen in the 2+1 CLC format and the 2+1 Fab2-scFv-Fc format was investigated. Anti-HIS capture (HIS1K) biosensors were used to capture CD28-Fc-His protein and dipped into multiple concentrations of XENP34339 or XENP34389. Kinetic analyses were performed by global fitting of binding data with a 1:1 Langmuir binding model as well as steady state model. The resulting dissociation constant (KD) are depicted in FIG. 53."}
{"binder": "B1", "values": [{"measurement": "binding result", "value": "binds"}]}
